These results are taken from paper PMC2810336, “Mutational Analysis of Highly Conserved Residues in the Phage PhiC31 Integrase Reveals Key Amino Acids Necessary for the DNA Recombination”.

The target in this data set is T1, phiC31 integrase WT (Streptomyces phage phiC31, UniProt Q38194 1-613).
T1 sequence: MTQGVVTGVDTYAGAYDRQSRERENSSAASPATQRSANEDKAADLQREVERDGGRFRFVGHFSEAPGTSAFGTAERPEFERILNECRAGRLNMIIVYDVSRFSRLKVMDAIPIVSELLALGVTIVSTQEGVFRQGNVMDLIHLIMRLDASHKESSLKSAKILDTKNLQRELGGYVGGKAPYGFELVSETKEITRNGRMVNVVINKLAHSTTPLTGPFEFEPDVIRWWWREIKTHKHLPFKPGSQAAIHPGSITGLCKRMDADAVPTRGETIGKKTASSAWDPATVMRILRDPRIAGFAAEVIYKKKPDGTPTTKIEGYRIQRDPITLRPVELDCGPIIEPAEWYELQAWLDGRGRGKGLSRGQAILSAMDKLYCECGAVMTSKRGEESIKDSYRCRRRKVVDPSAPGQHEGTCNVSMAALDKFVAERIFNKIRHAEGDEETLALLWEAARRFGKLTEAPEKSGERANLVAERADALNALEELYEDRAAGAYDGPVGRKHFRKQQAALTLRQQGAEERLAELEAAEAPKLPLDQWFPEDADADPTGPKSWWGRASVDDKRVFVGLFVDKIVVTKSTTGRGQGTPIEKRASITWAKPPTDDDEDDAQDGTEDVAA
As to the kind of experiment: EMSA; complexes I, II, III; reference; competed by excess cold attB; 50 ng/ul Poly (competitor (so in the source)), 0.05% NP-40, 50 mM KCl, 5 mM MgCl2, 10 mM EDTA, 20 ul, 0.4 ng (16 fmol) probe; 30 min at room temperature (Methods) or 30 C; pH not stated; synapsis 2 h at 30 C. The following applies: protein: recombinant; tags: C-terminal His (pET22b); chain copies: 2; label: biotin, double-strand end-labeled; blunt.

B1: attB 41 bp (dsDNA)
DNA 1: CGGGTGCCAGGGCGTGCCCTTGGGCTCCCCGGGCGCGTACT
DNA 2: AGTACGCGCCCGGGGAGCCCAAGGGCACGCCCTGGCACCCG
Regarding B1, the binding signal is 100 % of WT.
